# According to publication PMC4012986, “The Dimerization Domain in DapE Enzymes Is required for Catalysis” (PLoS ONE, 2014):
# B1: N-succinyl-L,L-diaminopimelic acid desuccinylase (DapE) from Haemophilus influenzae, wild type, full length (enzyme)
# chain: MKEKVVSLAQDLIRRPSISPNDEGCQQIIAERLEKLGFQIEWMPFNDTLNLWAKHGTSEPVIAFAGHTDVVPTGDENQWSSPPFSAEIIDGMLYGRGAADMKGSLAAMIVAAEEYVKANPNHKGTIALLITSDEEATAKDGTIHVVETLMARDEKITYCMVGEPSSAKNLGDVVKNGRRGSITGNLYIQGIQGHVAYPHLAENPIHKAALFLQELTTYQWDKGNEFFPPTSLQIANIHAGTGSNNVIPAELYIQFNLRYCTEVTDEIIKQKVAEMLEKHNLKYRIEWNLSGKPFLTKPGKLLDSITSAIEETIGITPKAETGGGTSDGRFIALMGAEVVEFGPLNSTIHKVNECVSVEDLGKCGEIYHKMLVNLLDS
# notes: also called HiDapE; WT-HiDapE; source: E. coli BL21(DE3) derivative with pMAGIC; purification of the wild type not described
# Columns and labels:
# [1] = system: N[C@@H](CCC[C@H](NC(=O)CCC(=O)O)C(=O)O)C(=O)O; experiment: purified protein; settings: 50 mM phosphate pH 7.5, 25 °C, two equivalents Zn(II)
# purified protein = substrate: N[C@@H](CCC[C@H](NC(=O)CCC(=O)O)C(=O)O)C(=O)O; experiment: purified protein; settings: 50 mM phosphate pH 7.5, 25 °C, two equivalents Zn(II); remark: listed apart in the source
# [2] = target: the molecule itself; experiment: dynamic light scattering; DynaPro-801, 21°C; 2.0 mg/ml in crystallization buffer (250 mM NaCl, 20 mM HEPES pH 8.0, 1 mM TCEP)
Molecule,Km [1] [µM],kcat [1] [s⁻¹],Km (purified protein) [µM],kcat (purified protein) [s⁻¹],binding result [2]
WT-VcDapE (Vibrio cholerae O1 biovar El Tor str. N16961),1200 ± 200,80 ± 10,,,
B1,,,800 ± 100,114 ± 10,binds
